Test results reported in paper doi:10.1101/2023.09.15.557970 (bioRxiv, 2023).
Values belong to the binder of their own block, whether it stands above or below them.

Target: Human CSL spanning residues 25-449 (human, UniProt Q06330 25-449)
Assay: ITC

Sequence of Human CSL spanning residues 25-449 (Q06330 25-449): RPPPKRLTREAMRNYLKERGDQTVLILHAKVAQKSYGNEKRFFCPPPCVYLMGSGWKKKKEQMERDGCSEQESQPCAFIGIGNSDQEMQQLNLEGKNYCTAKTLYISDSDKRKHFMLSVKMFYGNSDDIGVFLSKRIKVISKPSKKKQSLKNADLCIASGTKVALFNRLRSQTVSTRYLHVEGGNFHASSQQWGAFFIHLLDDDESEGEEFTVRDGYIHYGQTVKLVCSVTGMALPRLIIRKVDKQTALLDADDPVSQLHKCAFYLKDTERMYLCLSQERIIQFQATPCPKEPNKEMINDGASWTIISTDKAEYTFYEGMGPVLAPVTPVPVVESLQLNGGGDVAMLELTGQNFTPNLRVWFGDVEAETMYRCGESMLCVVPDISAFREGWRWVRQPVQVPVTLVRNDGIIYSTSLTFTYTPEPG

- Kd: ≤ 100 nM
B1: Notch2 RAMANK (domain or fragment, human, UniProt Q04721 1699-2076, looked up)
chain: MAKRKRKHGSLWLPEGFTLRRDASNHKRREPVGQDAVGLKNLSVQVSEANLIGTGTSEHWVDDEGPQPKKVKAEDEALLSEEDDPIDRRPWTQQHLEAADIRRTPSLALTPPQAEQEVDVLDVNVRGPDGCTPLMLASLRGGSSDLSDEDEDAEDSSANIITDLVYQGASLQAQTDRTGEMALHLAARYSRADAAKRLLDAGADANAQDNMGRCPLHAAVAADAQGVFQILIRNRVTDLDARMNDGTTPLILAARLAVEGMVAELINCQADVNAVDDHGKSALHWAAAVNNVEATLLLLKNGANRDMQDNKEETPLFLAAREGSYEAAKILLDHFANRDITDHMDRLPRDVARDRMHHDIVRLLDEYNVTPSPPGTVL

- Kd: ≤ 100 nM
B2: Notch4 RAMANK (domain or fragment, human, UniProt Q99466 1472-1833, looked up)
chain: RRRRREHGALWLPPGFTRRPRTQSAPHRRRPPLGEDSIGLKALKPKAEVDEDGVVMCSGPEEGEEVGQAEETGPPSTCQLWSLSGGCGALPQAAMLTPPQESEMEAPDLDTRGPDGVTPLMSAVCCGEVQSGTFQGAWLGCPEPWEPLLDGGACPQAHTVGTGETPLHLAARFSRPTAARRLLEAGANPNQPDRAGRTPLHAAVAADAREVCQLLLRSRQTAVDARTEDGTTPLMLAARLAVEDLVEELIAAQADVGARDKWGKTALHWAAAVNNARAARSLLQAGADKDAQDNREQTPLFLAAREGAVEVAQLLLGLGAARELRDQAGLAPADVAHQRNHWDLLTLLEGAGPPEARHKATP

- Kd: ≤ 100 nM
B3: Notch1 RAMANK (domain or fragment, human, UniProt P46531 1758-2127, looked up)
chain: RKRRRQHGQLWFPEGFKVSEASKKKRREPLGEDSVGLKPLKNASDGALMDDNQNEWGDEDLETKKFRFEEPVVLPDLDDQTDHRQWTQQHLDAADLRMSAMAPTPPQGEVDADCMDVNVRGPDGFTPLMIASCSGGGLETGNSEEEEDAPAVISDFIYQGASLHNQTDRTGETALHLAARYSRSDAAKRLLEASADANIQDNMGRTPLHAAVSADAQGVFQILIRNRATDLDARMHDGTTPLILAARLAVEGMLEDLINSHADVNAVDDLGKSALHWAAAVNNVDAAVVLLKNGANKDMQNNREETPLFLAAREGSYETAKVLLDHFANRDITDHMDRLPRDIAQERMHHDIVRLLDEYNLVRSPQLHGA

- Kd: ≤ 100 nM
B4: Notch3 RAMANK (domain or fragment, human, UniProt Q9UM47 1663-2038, looked up)
chain: MVARRKREHSTLWFPEGFSLHKDVASGHKGRREPVGQDALGMKNMAKGESLMGEVATDWMDTECPEAKRLKVEEPGMGAEEAVDCRQWTQHHLVAADIRVAPAMALTPPQGDADADGMDVNVRGPDGFTPLMLASFCGGALEPMPTEEDEADDTSASIISDLICQGAQLGARTDRTGETALHLAARYARADAAKRLLDAGADTNAQDHSGRTPLHTAVTADAQGVFQILIRNRSTDLDARMADGSTALILAARLAVEGMVEELIASHADVNAVDELGKSALHWAAAVNNVEATLALLKNGANKDMQDSKEETPLFLAAREGSYEAAKLLLDHFANREITDHLDRLPRDVAQERLHQDIVRLLDQPSGPRSPPGPHG
